Source: article PMC1885261, “Structure of the dimeric N-glycosylated form of fungal β-N-acetylhexosaminidase revealed by computer modeling, vibrational spectroscopy, and biochemical studies” (BMC Structural Biology, 2007)

B1: β-N-acetylhexosaminidase (native form) (Aspergillus oryzae) (protein)
chain 1: VGVNPLPAPREISWGSSGPKSIAGELQLRTDSDSADGIVADAWNRAWETIVALRWVPAATEAPISSFEPFPTPTAGAS
chain 2: ASNSLQYVNVQVKDIEADLQHGVDESYTLDVEEDSDTITINAETVWGALHAFTTLQQLVISDGHGGLIIEEPVNIKDSPLYPYRGIMLDTGRNFVSLPKIFEQLEGMSLSKLNVLHWHIDDAQSWPIWVDVYPEMVKDAYSPHEIYSRNDVRNIVNYARARGIRVIPEIDMPSHSSSGWKQVDPEMVTCTDSWWSNDDWPLHTAVEPNPGQLDIIYNKTYEVVGNVYKELSDIFPDHWFHVGGDEIQPNCFNFSTHVTKWFAEDPSRTYHDLAQYWVDHAVPIFQNYSQERRLVMWEDIALSADNAHDVPKNIVMQSWNNGLEYISNLTARGYDVIVSSSDFLYLDCGHGGFVTNDPRYNVMANPDANTPNFNYGGNGGSWCAPYKTWQRIYDYDFTLNLTETQAKHIIGATAPLWGEQVDDINVSSMFWPRAAALAELVWSGNRDANGNKRTTEMTQRILNFREYLVANGVQAQALVPKYCLQHPHACDLYRNQAAIQ
notes: native enzyme purified from culture medium of A. oryzae; secreted, fully N-glycosylated (six sites), dimer; GH20
B2: deglycosylated β-N-acetylhexosaminidase (Aspergillus oryzae) (protein)
chain 1: B1 chain 1
chain 2: B1 chain 2
notes: same polypeptide as P1, native purification, enzymatically N-deglycosylated under native conditions (endoglycosidase H, leaving core GlcNAc, or N-glycanase)

Substrate: CC(=O)N[C@H]1[C@H](Oc2ccc([N+](=O)[O-])cc2)O[C@H](CO)[C@@H](O)[C@@H]1O
Assay: 4-nitrophenyl substrate hydrolysis assay
Assay type: biochemical, Aspergillus oryzae
Conditions: substrate concentrations around Km

Protein | Km (native N-glycosylated form) [µM] | Km (deglycosylated form) [µM]
B1 | 450 | –
B2 | – | 710
